Measured values taken from PMC4597910.
Like-named read-outs stand apart in the source and are kept apart here.

How the values were obtained:
GB1-SRSF1 RRM1+2 [1] = molecular target: T1, GB1-SRSF1 RRM1+2 (UniProt Q07955 16-195); assay: NMR titration
GB1-SRSF1 RRM1+2 [2] = molecular target: T1, GB1-SRSF1 RRM1+2; assay: NMR titration; remark: listed apart in the source

T1 sequence (Q07955 16-195): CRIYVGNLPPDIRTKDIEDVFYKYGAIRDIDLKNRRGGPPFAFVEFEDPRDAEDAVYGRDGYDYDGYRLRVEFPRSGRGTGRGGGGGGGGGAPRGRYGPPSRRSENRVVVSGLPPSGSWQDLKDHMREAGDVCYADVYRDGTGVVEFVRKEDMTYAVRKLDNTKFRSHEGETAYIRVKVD

Row | Binder | binding result (GB1-SRSF1 RRM1+2 [1]) | binding result (GB1-SRSF1 RRM1+2 [2])
1 | UCACUGGA (ssRNA) [UCACUGGA mutant] | binds | –
2 | UCAGAGGA (ssRNA) [WT UCAGAGGA] | – | binds
